# From the DeepSol protein solubility set
# Assay: soluble on expression in E. coli; label from the status in PepcDB or PDB records
row,Sequence,soluble on expression in E. coli
1,MGVDNFSTTKKMFTWEVPGERVITLMTAGNLATTQALISLLEERSKTPSERSPSILERPTMFEVARLVGATLKEVIADTAGTGQVASSQFKASVIVGGQVKGGLPTLFLIYPEGNFIEVTEDSPFFQIGEAKYGKPILVRAYDPDLSFEDTIRLLMVSFDSTIKANLSVGLPLDLQVYANDSFAIKEQSRVEADDAYFQSISERWGDALRKALSDLPPYKSLLEHHHHHH,not soluble
2,MSLRPTMTDIAKLTGVSQSTVSLVLNNATGAKFSETTRNKVLKAAHDLGYRLSLREPVSASADERNLIVYLADEISTSPHPVVNIDGARDAAYASGKMLAVYSTHGNADIEKQVLDTTLSNPHVFGVIYATVYTRKVTPPAALSQVPTVLLNCYTGEGGFSSVVPAEVAGGHLATDYLLQSGHRRIGYINGEPWQDASKDRLKGYRTALATADLPFAQEMVRDGDWSSGLGFELTLSLMRESNPPTAIFCANDLTAIGAIEALKQLGLRVPEDVSVLGYDDQEIARHTHPPLSTVVLPNYELGRWAVETLLQEEHNRAAGAPVRHRMVKLDGPLVERGSVRVITEAKEGHHHHHH,soluble
3,MGSDKIHHHHHHMINVLILGAASQISRFLIPDLLADKTVYLTLFARQAPQRLGQYAGESRVTLVDGDWNQEADIEQVMSNQDIVFLASSSLVGNQNVVTVMKHTGVQRLIVAGGLGIDDEVAGKFGNWNTRMMGDYTPYKQAAKVILDSGLNTTYLRMTWLYDENGNEKYQIVPEGQPLRGTQVTRQAVAKLVTAIVRQPSLYQYANIGVVEPGTEWDKPSFY,not soluble
4,TDTDEVINLRVVETTDIHTNLMDYDYYKDKPTQKIGLARTATLVKEARAEVTNSVLVDNGDLLQGSPMGDYMADKGIEAGEVHPAYKAMNQLDYDAGNIGNHEFNYGLEFLAESINDADFPYISANVYDAKTKEHYFKPYIIKTHKLKDTAGVEHEIKVGYIGFVPPQIMVWDKKNLEGKVFARDIKETAEELVPQMKAEGADVIVAIPHSGVSTNPYKQGEENSTYYLSEVDGIDAIAFGHSHAVFPGKGFDNLQGIDNENGTINGVAAVMPGRWGSHVGVMDLTLEQKDGKWSVVKGQSEARPIFDKTNQKSLADADKGIVQALEADHKGTRDFVNQ,not soluble
5,MEEEAAVEKPISLNQQRMNGVVAALKQSNARRVIDLGCGQGNLLKILLKDSFFEQITGVDVSYRSLEIAQERLDRLRLPRNQWERLQLIQGALTYQDKRFHGYDAATVIEVIEHLDLSRLGAFERVLFEFAQPKIVIVTTPNIEYNVKFANLPAGKLRHKDHRFEWTRSQFQNWANKITERFAYNVQFQPIGEADPEVGSPTQMAVFIHRGHHHHHH,soluble
6,MSLSIALIAPYESLATLCRSICQELDLDVSVHTGSMEDGVRIARNLMAEGVDFFISRGLTAQLIREQCPLPVAELEVSAFDIYLCLEPLLRSGKSIGVVGHSDILRKAKGASAALGFTIDFYATAHPGGMGHIMEAARRQGIAAIAGDAVAARTAERYGMEGVLVQNGADSVTNTLQYAVATYSYLTRQATMAGRLQTVLDRMDGGALLASPDGRMLHCNAAVRAMLEPDQGCTETSMDDLFPQLDWRAVPEGRAETVRELVTVGGSKLAVTVTGTMHDDAMDALICTFHDVRQIEQLEHSFRKSEGHHHHHH,soluble
7,MHFSRIVSGLACSIILNISVSNANAAQVENYTQYLPDGANLALMVQKIGASTPAIDYHAQQMALPASTQKVLTALAALLQLGPDFRFNTTLESHGTITDGVLRGNLIARFGGDPTLTRQQLRNMVATLRKAGVKQIAGDVVIDTSVFASHDKAPGWPWNDMTQCFSAPPAAAIVDRNCFSVSLYSAPNPGDTAFIRVASYYPVQMFSEVRTLAKGSPDAQYCELDVVPGELNRFTLTGCLTQRSEPLPLAFAVQNGASYAGAILKDELKKADIQIDGNLRRQTIPSPAGNVLAQTQSAPLHDLLKIMLKKSDNMIADTVFRTIGHQRFGVPGTWRSGADAVRQILRQKAGVDLGNSIVVDGSGLSRHNLISPATMMQVLQYIAQNDQELNFISMLPLAGYDGTLRYRGGLHEAGVNGKVSAKTGALQGVYNLAGFITTASGQRMAFVQFLSGYAVPPEDQKNRRAPLVRFESRLYKDIYQNN,not soluble
8,MLGIDLGSNTLRAVQMDEKLNKLKEYEFVIGAAKNLNQSGEISKEAIQRLKNTLSILAKEQDLSKARAVATAAFRKASNTNEIFAHLKKEFGIDFKLIDAKSEAKISVLGMQSGLRRLKIWGEFAYCDLGGASCELSFGKSFKSFDFGIISFYEKNYHSYYKSCISYKKLIKKYPKFIINIKDKKLKIHFLIANPYLKHLAFRAFDEVAMIKKELRSLGAKTVVLNSGVPTTLSALKQNISYEKYEATKVNGKKLCHKDFLNYAIKLFHMEEKKAIKEVGTMRKNYLSAGCLLFYALFDKHKLLVIDEGLREGVCLASMKNIKF,not soluble
9,MGSDKIHHHHHHMASYHLNAKMAQDIVSRTMQIIDSNINVMDARGKIIGSGDQERLGELHEGALLALSQGRVVDIDDAVARHLHGVRPGINLPLRIDGEIVGVIGLTGNPSQLRQYGELVCMTAEMMLEQARLLHMLAQDSRLREELVLNLVRTDDLSPALMEWAQRLGIDMNKPRVAAVIEVDSGQLGVDSAMAELQQLQTLLTTPERDNLIAIVSLTEMVVLKPALNSHGRWDAEEHRRRVDTLMSRMAESSRLRVRLALGNYFAGPGSIARSYRTARTTMSVGKQRMPAQRCYYYQDLMLPVLLDSLRGGWQANELVRPLSKLKAMDGNGLLRRTLGAWFRNNVQPGATAKALFIHRNTLEYRLNRISELTGLDLGNFDDRLLLYVALQLDEEE,not soluble
10,MSSSPSLPSSASVPAAFDRAPVSGLPDNAIEIDALRKVYGGGKVALESLSLAIPRGSFFGLLGPNGAGKSTLINIMAGLVRKTSGRVRIWGNDIDTDERAARCAIGIVPQELSFDPFFTPREMLDVQAGLYGVPKAERRTLEILRAVGLEDKADAYSRTLSGGMRRRLLVAKAMVHSPPILVLDEPTAGVDIELRQQLWAYVRDLNARGTTVLLTTHYLEEAEELCDRIAIIDHGKVVVSEPTTTLLGRLDNKSLTLRLAQPLDAPPPALAALGAELRDPYHLVITYHPSSLPMARILDAARAGGLTIADLTTREADLEDVFLRLTSSHHRAQEIGLEHHHHHH,soluble
11,SGRLSVSRQNFEVHKHLNRLNKPAVKSIQSPDGDIIDCVHISKQPAFDHPFLKDHKIQMGPSYTPESLFGESKVSEKPKESVNPITQLWHQNGVCSEGTIPVRRTKKEDVLRASSVKRYGKKKHLSVPLPRSADPDLINQSGHQHAIAYVEGGKFYGAKATINVWEPKVQSSNEFSLSQLWILGGSFGQDLNSIEAGWQVSPDLYGDNNTRLFTYWTSDAYQATGCYNLLCSGFIQINSQIAMGASISPVSGFHNPQYDISITIWKDPKEGHWWMQFGDGYVLGYWPSFLFSYLADSASIVEWGGEVVNMEEDGHHTTTQMGSGQFPDEGFTKASYFRNIQVVDSSNNLKEPKGLNTFTEKSNCYDVEVGKNDDWGHYFYYGGPGRNPNCQ,soluble
12,MAHHHHHHMGTLEAQTQGPGSMIGITQAEAVLTIELQRPERRNALNSQLVEELTQAIRKAGDGSARAIVLTGQGTAFCAGADLSGDAFAADYPDRLIELHKAMDASPMPVVGAINGPAIGAGLQLAMQCDLRVVAPDAFFQFPTSKYGLALDNWSIRRLSSLVGHGRARAMLLSAEKLTAEIALHTGMANRIGTLADAQAWAAEIARLAPLAIQHAKRVLNDDGAIEEAWPAHKELFDKAWGSQDVIEAQVARMEKRPPKFQGA,soluble
13,MAHHHHHHMRKVKKNKQVRNMLKSLTERVDTDDGENEYARLTQTPVVKMNLSKVKLKTSLQSVLVEPYTEKVKDFVAKTNYEISMEKTLLDEIKNANQNMDRIGDVLSARGGKQRKTRDNHHIMGRYFHYLRDKNEDFGLSFFPVYKTFKSNFSHFSDNLNSSLYPHELLEMGSMSSGNFLKNSSKRISFPERGDS,not soluble
14,MAPLKRRKVSAPTGNENTPRSTRSIRHKREDPRGKMKPLATSTRTSSVNKKKKNDDDYENFYSGENTITTMKPVVFPKKPVIFEHGYGIEDDIEDEIDDEELDDEEYEESGNGNEDEVEEEVGVEEQEIENNFAYKKVKSEISCSPFLKEHSVHSVLTNNRAKTGTIDSKAGRTAYRKQKLREGTCCSQSNEATGDSTDRSSTSAGFDVFQHLQNRAVQKTMIEQLESAVRNQDVMEMGNVVKKGLENGTLSEIQIEEFCKHTTRPNFSILQFVQALRQSTEDEKESIQIAQMMMFKMQDPKDGNYTALAANVHTLTSKISKQLNAGCIVKRTLTMNHTISQADGFPTCNLTDIYNSELLIGGDAVSQLSNFYMVALKTMLEPSYKIWAFTYRPSCVRRVDRHFQELPQKVTTAIIEVAFDIVGVYLPVELSYGSIDREHEFIKTLGEGAELEVQRRRDERITVFKNAVEALGKAMNNLRTYHFDIAKGALFNCNKPSYCEHHLKWGQVRKFREQHQRMETSPEEVIRFATGQRNEHDVSAAGRSVKDSTH,not soluble
15,MCEATYGGASPQIRRQRFVILGMSDDPHPFFPPAAMTAIASGKIFSGGKRHHEIVRGLLPADAEWIDITVPLDDVFARYREYEEIVVFASGDPLFFGFANTVMNRLPDAVVTVYPTFNSLQMLAHALRMPYHDMRIVSLTGRPWHEFDRALIERAEKIGILTDHEHTPSAIAMRMLDYGYEDYTMSVGTRMGNPQEQCLDTFSLREAADRDFERPNCVILSATRPFVCSRAPLGLSESAFMPLNGRTKMITKMPFRLVSLSCLELHRASSFWDIGFCTGSVSIEAKLNFPHLHITAFEIRPEGAELMPVNSRRFGAPGIAYRIGDFMEEDISSLAPPDAVFIGGHGGRLVEMIAKVHSVMTKGGLLVFNSVSEESRHLFLTGIEACGMELLSSIRLTADGNNPIDILQARKKE,not soluble
16,MAGTGHTPEEALALLKRGAEEIVPEEELLAKLKEGRPLTVKLGADPTRPDLHLGHAVVLRKMRQFQELGHKVVLIIGDFTGMIGDPSGRSKTRPPLTLEETRENAKTYVAQAGKILRQEPHLFELRYNSEWLEGLTFKEVVRLTSLMTVAQMLEREDFKKRYEAGIPISLHELLYPFAQAYDSVAIRADVEMGGTDQRFNLLVGREVQRAYGQSPQVCFLMPLLVGLDGREKMSKSLDNYIGLTEPPEAMFKKLMRVPDPLLPSYFRLLTDLEEEEIEALLKAGPVPAHRVLARLLTAAYALPQIPPRIDRAFYESLGYAWEAFGRDKEAGPEEVRRAEARYDEVAKGGIPEEIPEVTIPASELKEGRIWVARLFTLAGLTPSNAEARRLIQNRGLRLDGEVLTDPMLQVDLSRPRILQRGKDRFVRVRLSD,soluble
17,MAWGQIAVVSPLVNIPVNTIEQSLLRQLPGCWGCKDKDSVFRYVNQEYAELLGHASPEECIGKTDFEMSSPTTECAQEFQRQDKHVIETGESLKILDIHPYPDGRWRAHIFTKTPWRDEQGNTLGTIFYGRELTDTAVIEVGYWVCRAIGTDMNHQSIFRFSNLNPKPEKLTCREQETLFLLLYGKKPQFISQVMGISTKTVEGHVARLRNKFEANSKNELIDKAMEAGYGSVVPKTLLKHQLSVVLNGER,not soluble
18,DQRQAEKALLESEQKFRSFIETTSEGFLILTPQLDINFSNTAICQLAGYSLTEMQGKSVLVFVTSESRKQLRQQLIMARSHSHLAAELTLMHKNGHHVFIRYKATVMADGNGFFTYITDIT,not soluble
19,MSLRIEEIRRYHESLMVELDRIYRIAEAARKKGLDPELSVEIPIAKNMAERVEKLMNLQGLAKRIMELEEGGLSRELICFKVADEIVEGKFGEMPKEEAIDKAVRTAVAIMTEGVVAAPIEGIARVRIDRENFLRVYYAGPIRSAGGTAQVISVLVADYVRRKAEIGRYVPTEEEILRYCEEIPLYKKVANLQYLPSDEEIRLIVSNCPICIDGEPTESAEVSGYRNLPRVETNRVRGGMALVIAEGIALKAPKLKKMVDEVGIEGWEWLDALIKGEGHHHHHH,soluble
